# T1: mouse EpCAM (mouse, UniProt Q99JW5 24-266)
# T1 construct: extracellular domain; also called mouse EpCAM-ECD
# T1 sequence (looked up): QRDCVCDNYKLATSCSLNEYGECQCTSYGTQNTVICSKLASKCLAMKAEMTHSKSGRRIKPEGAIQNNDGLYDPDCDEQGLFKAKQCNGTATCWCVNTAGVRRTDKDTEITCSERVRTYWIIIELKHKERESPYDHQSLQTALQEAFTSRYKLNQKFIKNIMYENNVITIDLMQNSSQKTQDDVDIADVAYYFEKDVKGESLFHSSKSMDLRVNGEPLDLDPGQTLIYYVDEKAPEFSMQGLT
# T2: rat EpCAM (rat, UniProt O55159 24-266, limits assumed)
# T2 sequence (looked up): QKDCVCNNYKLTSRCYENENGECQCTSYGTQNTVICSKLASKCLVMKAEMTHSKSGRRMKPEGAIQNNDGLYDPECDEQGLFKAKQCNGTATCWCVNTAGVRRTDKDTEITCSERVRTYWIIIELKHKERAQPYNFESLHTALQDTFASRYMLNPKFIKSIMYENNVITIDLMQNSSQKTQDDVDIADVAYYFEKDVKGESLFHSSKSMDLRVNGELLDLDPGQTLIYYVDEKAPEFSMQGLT
# T3: recombinant human EpCAM extracellular domain (human, UniProt P16422 24-265)
# T3 construct: extracellular domain; Plate-coated antigen of the ELISAs; also called human EpCAM ECD; recombinant EpCAM antigen
# T3 sequence (looked up): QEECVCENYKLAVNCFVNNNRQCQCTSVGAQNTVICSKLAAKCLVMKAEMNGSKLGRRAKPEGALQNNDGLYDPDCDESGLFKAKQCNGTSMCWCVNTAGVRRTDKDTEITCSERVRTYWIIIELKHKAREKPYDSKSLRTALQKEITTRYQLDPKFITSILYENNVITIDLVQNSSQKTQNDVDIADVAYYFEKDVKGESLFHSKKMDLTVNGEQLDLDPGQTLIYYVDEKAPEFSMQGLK
# T4: human EpCAM expressed on cells (CHO, Colo205, 293) (human, UniProt P16422 24-314)
# T4 construct: whole, on cells; also called CHO cells expressing human EpCAM; Colo205 cells expressing human EpCAM
# T4 sequence (looked up): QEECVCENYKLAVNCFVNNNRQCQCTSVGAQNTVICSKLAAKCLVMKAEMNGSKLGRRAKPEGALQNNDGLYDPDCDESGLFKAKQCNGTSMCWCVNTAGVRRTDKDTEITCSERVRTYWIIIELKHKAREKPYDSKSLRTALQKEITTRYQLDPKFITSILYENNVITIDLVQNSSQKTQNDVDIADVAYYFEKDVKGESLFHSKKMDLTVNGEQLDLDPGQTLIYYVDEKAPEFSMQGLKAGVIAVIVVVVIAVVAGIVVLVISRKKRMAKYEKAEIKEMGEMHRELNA
# T5: mouse EpCAM-ECD with C-terminal His-tag (expressed in CHO cells) (mouse, UniProt Q99JW5 24-266)
# T5 construct: extracellular domain
# T5 sequence (looked up): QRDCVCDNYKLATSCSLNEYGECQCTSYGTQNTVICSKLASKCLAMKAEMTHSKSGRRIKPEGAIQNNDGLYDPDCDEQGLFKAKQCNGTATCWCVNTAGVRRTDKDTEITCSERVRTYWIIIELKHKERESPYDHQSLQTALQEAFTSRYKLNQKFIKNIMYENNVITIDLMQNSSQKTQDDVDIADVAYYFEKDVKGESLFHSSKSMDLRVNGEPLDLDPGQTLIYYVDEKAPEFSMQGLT
# T6: chimeric human/mouse EpCAM-ECD 1 (Homo sapiens (Human), UniProt P16422 24-265)
# T6 construct: also called ch1EpCAM-his; chimeric EpCAM-ECD 1
# T6 chain: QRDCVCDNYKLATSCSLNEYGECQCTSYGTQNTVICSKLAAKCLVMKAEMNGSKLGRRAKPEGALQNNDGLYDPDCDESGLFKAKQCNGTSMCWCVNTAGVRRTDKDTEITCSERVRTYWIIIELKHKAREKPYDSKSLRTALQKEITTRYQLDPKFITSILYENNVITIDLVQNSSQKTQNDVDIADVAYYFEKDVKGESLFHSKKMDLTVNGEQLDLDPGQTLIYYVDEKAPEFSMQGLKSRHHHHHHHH
# Experiments:
# mouse EpCAM = biological target: T1, mouse EpCAM; test: hybridoma screening, ELISA
# rat EpCAM = biological target: T2, rat EpCAM; test: hybridoma screening, ELISA
# [1] = biological target: T3, recombinant human EpCAM extracellular …; test: ELISA with pH titration, human EpCAM
# Description: The binding activities of the humanized conditionally active anti-EpCAM antibodies to human EpCAM with pH titration were also measured by ELISA.
# (§1) The ELISA assay was performed using the following protocol: [0388] 1) Coat ELISA plates with 100 μL of 0.5 μg/mL (06_20_17 and 06_28_17 Experiments) or 1 μg/mL (07_06_17 and 07_11_17 Experiments) recombinant EpCAM antigen in carbonate-bicarbonate coating buffer [0389] 2) Cover plates with sealing film and incubate overnight at 4° C. [0390] 3) Decant plates and tap out residual liquid on a stack of paper towels [0391] […] 5) Add 200 μL of various pH incubation buffers to the wells according to the sample map.
# [2] = biological target: T3, recombinant human EpCAM extracellular …; test: ELISA, human EpCAM, pH 6.0
# Description: (§2) The binding activities of the humanized conditionally active anti-EpCAM antibodies to human EpCAM were measured by ELISA, using the template antibody BAP-1-5-01-06, as a control. The EC50 values of the humanized conditionally active anti-EpCAM antibodies for binding to human EpCAM at pH 6.0 and pH 7.4 are summarized in Table 5.
# as §1
# [3] = biological target: T4, human EpCAM expressed on cells (CHO, …); test: FACS on 293 cells expressing human EpCAM, pH 6.0
# Description: (§3) A similar FACS analysis was also carried out using 293 cells expressing human EpCAM. […] The EC50 values for binding to the 293 cells expressing human EpCAM by the humanized conditionally active anti-EpCAM antibodies are summarized in Table 10.
# [4] = biological target: T4, human EpCAM expressed on cells (CHO, …); test: FACS on Colo205 cells expressing human EpCAM, pH 6.0
# Description: (§4) Binding activities of the humanized conditionally active anti-EpCAM antibodies to Colo205 cells expressing human EpCAM were measured by FACS at pH 6.0 and pH 7.4. […] The EC50 values for binding to the Colo205 cells expressing human EpCAM by the humanized conditionally active anti-EpCAM antibodies are summarized in Table 9.
# [5] = biological target: T4, human EpCAM expressed on cells (CHO, …); test: FACS on 293 cells expressing human EpCAM, pH 7.4
# Description: as §3
# [6] = biological target: T7, cyno EpCAM (recombinant, ELISA antigen) (cynomolgus monkey); test: ELISA, cyno EpCAM, pH 6.0
# T7 construct: extracellular domain; also called cynomolgus EpCAM extracellular domain
# T7 sequence (Q1WER1 24-265): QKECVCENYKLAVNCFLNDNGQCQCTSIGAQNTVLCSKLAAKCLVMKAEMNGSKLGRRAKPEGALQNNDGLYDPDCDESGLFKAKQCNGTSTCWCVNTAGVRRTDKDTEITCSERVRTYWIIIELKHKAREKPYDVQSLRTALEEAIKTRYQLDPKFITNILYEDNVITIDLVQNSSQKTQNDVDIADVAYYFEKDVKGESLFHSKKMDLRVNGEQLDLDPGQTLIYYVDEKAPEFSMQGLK
# Description: (§5) The binding activities of the humanized conditionally active anti-EpCAM antibodies to cyno EpCAM were similarly measured. The EC50 for binding to the cyno EpCAM at pH 6.0 and pH 7.4 for the humanized conditionally active anti-EpCAM antibodies are summarized in Table 7.
# as §1
# [7] = biological target: T8, cyno EpCAM expressed on 293 cells (cynomolgus monkey); test: FACS on 293 cells expressing cyno EpCAM, pH 6.0
# T8 construct: whole, on cells; also called 293 cells expressing cyno EpCAM
# T8 sequence (Q1WER1 24-314): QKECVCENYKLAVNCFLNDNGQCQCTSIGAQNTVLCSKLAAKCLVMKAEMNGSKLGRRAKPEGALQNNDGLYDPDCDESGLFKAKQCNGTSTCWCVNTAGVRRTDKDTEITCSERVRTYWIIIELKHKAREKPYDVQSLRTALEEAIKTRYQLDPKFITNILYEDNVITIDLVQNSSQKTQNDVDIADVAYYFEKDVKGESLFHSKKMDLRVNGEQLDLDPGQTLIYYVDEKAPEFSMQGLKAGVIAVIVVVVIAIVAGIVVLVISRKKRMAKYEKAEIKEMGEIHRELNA
# Description: (§6) A similar FACS analysis was also carried out using 293 cells expressing cyno EpCAM. […] The EC50 values for binding to the 293 cells expressing cyno EpCAM by the humanized conditionally active anti-EpCAM antibodies are summarized in Table 11.
# [8] = biological target: T7, cyno EpCAM (recombinant, ELISA antigen); test: ELISA, cyno EpCAM, pH 7.4
# Description: as §5, §1
# [9] = biological target: T7, cyno EpCAM (recombinant, ELISA antigen); test: ELISA with pH titration, cyno EpCAM
# Description: The binding activities of the humanized conditionally active anti-EpCAM antibodies to cyno EpCAM with pH titration was similarly measured by ELISA.
# as §1
# [10] = biological target: T4, human EpCAM expressed on cells (CHO, …); test: FACS on Colo205 cells expressing human EpCAM, pH 7.4
# Description: as §4
# [11] = biological target: T8, cyno EpCAM expressed on 293 cells; test: FACS on 293 cells expressing cyno EpCAM, pH 7.4
# Description: as §6
# [12] = biological target: T3, recombinant human EpCAM extracellular …; test: ELISA, human EpCAM, pH 7.4
# Description: as §2, §1
# [13] = biological target: T5, mouse EpCAM-ECD with C-terminal His-tag …; test: ELISA on purified His-tagged ECDs
# Description: (§7) Human, mouse and the four chimeric EpCAM extracellular domains were expressed with a C-terminal His-tag in CHO cells and purified.
# [14] = biological target: T6, chimeric human/mouse EpCAM-ECD 1; test: ELISA on purified His-tagged ECDs
# Description: as §7
binding result (mouse EpCAM),binding result (rat EpCAM),pH inflection point [1],EC50 [2],EC50 [3],EC50 [4],EC50 [5],EC50 [6],EC50 [7],EC50 [8],pH inflection point [9],EC50 [10],EC50 [11],EC50 [12],binding result [13],binding result [14],Binder
no binding,no binding,,,,,,,,,,,,,,,"antibody of hybridoma clone 12C10F12 (antibody, V domains shown) VH: QVQLQQSGAELAKPGASVKVSCKASGYTFTSYWMHWVKQRPGQGLEWIGYIRPSTGYTEYNQKFKDKATLTADKSSSTAYMQLSSLTFEDSAVYYCGRGDNWVGFANWGQGTLVTVSA VL: QIVLTQSPAIMSASLGEEIALTCSASSSISYMHWYQQKSGTSPKLLIYSTSNLASGVPSRFSGSGSGTFYSLTISSVEAEDAADYFCHQWSTYHTFGSGTKLEIK"
,,6.83 pH,0.0134 µg/mL,0.129 µg/mL,0.342 µg/mL,0.154 µg/mL,0.49 µg/mL,1.6 µg/mL,7.17 µg/mL,6.35 pH,0.418 µg/mL,11.6 µg/mL,50 µg/mL,no binding,no binding,"BAP-105.4-01-05 (antibody, V domains shown, Humanized) VH: EVQLVQSGAEVKKPGATVKISCKVSGYTFTSYWMHWIRQPPGKGLEWIGYIRPSTGYTEYNQKFKDRFTISRDNSKNTLYLQMNSLRAEDTAVYYCGRGDNWVGFANWGQGTLVTVSS VL: EIVLTQSPDFQSVTPKEKVTITCSASSSISYMHWYQQKPGKAPKLLIYSTSNLASGVPDRFSGSGSGTDFTLKISRVEAEDVGVYYCHQWSTYETFGQGTKVEIK"

# — patent US20260053904A1 (BIOATLA, published 2026)
